Assay [1] deals with human plasmin (purified) (human). Kind of assay: enzyme inhibition titration.
Assay [2] has the same target. Nature of the assay: enzyme inhibition titration. This is another data set of the same source.
For assay [3] the target is unchanged. Kind of assay: enzyme inhibition progress curves.

Like-named read-outs stand apart in the source and are kept apart here.

In assay [1], “miropin (recombinant, tag-free) (from UniProt G8UQY8 1-432) (natural protein)” displayed a stoichiometry of inhibition (SI) of 2.3.

B1: human α2-antiplasmin (natural protein)
chain: NQEQVSPLTLLKLGNQEPGGQTALKSPPGVCSRDPTPEQTHRLARAMMAFTADLFSLVAQTSTCPNLILSPLSVALALSHLALGAQNHTLQRLQQVLHAGSGPCLPHLLSRLCQDLGPGAFRLAARMYLQKGFPIKEDFLEQSEQLFGAKPVSLTGKQEDDLANINQWVKEATEGKIQEFLSGLPEDTVLLLLNAIHFQGFWRNKFDPSLTQRDSFHLDEQFTVPVEMMQARTYPLRWFLLEQPEIQVAHFPFKNNMSFVVLVPTHFEWNVSQVLANLSWDTLHPPLVWERPTKVRLPKLYLKHQMDLVATLSQLGLQELFQAPDLRGISEQSLVVSGVQHQSTLELSEVGVEAAAATSIAMSRMSLSSFSVNRPFLFFIFEDTTGLPLFVGSVRNPNPSAPRELKEQQDSPGNKDFLQSLKGFPRGDKLFGPDLKLVPPMEEDYPQFGSPK
The kon is a measure of how fast the partners come together. Molecule B1 yielded a stoichiometry of inhibition (SI) in assay [2] of 1.1. The kon in assay [3] came out at 1.3e+06 M⁻¹ s⁻¹.

Source of the values: paper PMC8882047.
